Values quoted from earlier work in paper PMC10524267.

Biological target: CX3CR1 (Homo sapiens) (UniProt P49238)
Chain of UniProt P49238 (P49238 whole entry): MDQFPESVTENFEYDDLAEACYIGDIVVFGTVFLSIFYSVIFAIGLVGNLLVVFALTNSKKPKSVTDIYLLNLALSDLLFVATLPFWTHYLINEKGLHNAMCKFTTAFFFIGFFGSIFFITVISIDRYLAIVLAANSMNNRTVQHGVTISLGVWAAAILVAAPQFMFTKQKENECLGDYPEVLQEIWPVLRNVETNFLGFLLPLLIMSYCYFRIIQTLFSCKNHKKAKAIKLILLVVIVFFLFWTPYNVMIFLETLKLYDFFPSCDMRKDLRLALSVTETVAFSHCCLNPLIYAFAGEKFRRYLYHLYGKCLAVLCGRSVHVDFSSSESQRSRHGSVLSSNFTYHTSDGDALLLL

In the case of CX3CL1 (from UniProt P78423), the Kd is given as 0.91 nM.
